The values below come from PMC11446282.

Positions count from the first letter of the chain named.

The subject of the assay is PP2A-B55α. As to the kind of experiment: Single alanine mutational scan, YFP-tagged interactors immunoprecipitated from HeLa cells, Western blot. It is filed as binding, human. Here is the method:
Standard cloning techniques were used throughout. Point mutations were introduced by whole plasmid polymerase chain reaction (PCR). All constructs were fully sequenced. Synthetic DNA was purchased from GeneArt, Life Technologies and cloned into pcDNA5/FRT/TO (Invitrogen) expression vector containing YFP, resulting in the indicated YFP fusion proteins. These constructs were transiently transfected into HeLa cells 24 hours before harvesting cells. Cells were lysed in lysis buffer [50 mM tris-HCl (pH 7.5), 50 mM NaCl, 1 mM EDTA, 1 mM […], and 0.1% NP-40]. Complexes were immunoprecipitated at 4°C in lysis buffer with green fluorescent protein (GFP)–Trap (ChromoTek) and washed in lysis buffer. Precipitated protein complexes were washed three times in lysis buffer, eluted in 2× SDS sample buffer, and subjected to Western blotting or MS as indicated.

Where [1] appears, read: single alanine mutant of YFP-tagged IER2.
[2] abbreviates: single alanine mutant of YFP-tagged PME1.

B1: IER2 S14: IER2, S14 to alanine (protein, UniProt Q9BTL4 1-223, looked up, variant S14A)
Immediate early response gene …: MEVQKEAQRIMTLAVWKMYHSRMQRGGLRLHRSLQLSLVMRSARELYLSAKVEALEPEVSLPAALPSDPRLHPPREAESTAETATPDGEHPFPEPMDTQEAPTAEETSACCAPRPAKVSRKRRSSSLSDGGDAGLVPSKKARLEEKEEEEGASSEVADRLQPPPAQAEGAFPNLARVLQRRFSGLLNCSPAAPPTAPPACEAKPACRPADSMLNVLVRAVVAF
For the molecule B1, the Experimental % binding under setting [1] was determined as 83%.

B2: IER2 G26: IER2, G26 to alanine (protein, UniProt Q9BTL4 1-223, looked up, variant G26A)
Immediate early response gene …: B1 Immediate early response gene … with A14S, G26A
Turning to B2, the Experimental % binding under setting [1] came out at 87%.

B3: IER2 G27: IER2, G27 to alanine (protein, UniProt Q9BTL4 1-223, looked up, variant G27A)
Immediate early response gene …: B1 Immediate early response gene … with A14S, G27A
In the case of B3, under setting [1], the Experimental % binding worked out at 77%.

B4: IER2 Q24: IER2, Q24 to alanine (protein, UniProt Q9BTL4 1-223, looked up, variant Q24A)
Immediate early response gene …: B1 Immediate early response gene … with A14S, Q24A
Molecule B4 gave an Experimental % binding under setting [1] of 118%.

B5: IER2 L28: IER2, L28 to alanine (protein, UniProt Q9BTL4 1-223, looked up, variant L28A)
Immediate early response gene …: B1 Immediate early response gene … with A14S, L28A
Regarding B5, the Experimental % binding under setting [1] is recorded as 102%.

B6: IER2 W16: IER2, W16 to alanine (protein, UniProt Q9BTL4 1-223, looked up, variant W16A)
Immediate early response gene …: B1 Immediate early response gene … with A14S, W16A
Molecule B6 registered an Experimental % binding under setting [1] of 100%.

B7: IER2 M23: IER2, M23 to alanine (protein, UniProt Q9BTL4 1-223, looked up, variant M23A)
Immediate early response gene …: B1 Immediate early response gene … with A14S, M23A
As for B7, under setting [1], the Experimental % binding is listed as 94%.

B8: IER2 V15: IER2, V15 to alanine (protein, UniProt Q9BTL4 1-223, looked up, variant V15A)
Immediate early response gene …: B1 Immediate early response gene … with A14S, V15A
With B8, under setting [1], the Experimental % binding is recorded as 91%.

B9: IER2 R25: IER2, R25 to alanine (protein, UniProt Q9BTL4 1-223, looked up, variant R25A)
Immediate early response gene …: B1 Immediate early response gene … with A14S, R25A
As for B9, the Experimental % binding under setting [1] came out at 76%.

B10: IER2 K17: IER2, K17 to alanine (protein)
chain: B1 Immediate early response gene … with A14S, K17A
Consider B10, for which the Experimental % binding under setting [1] came to 10%.

B11: PME1 L4: PME1, L4 to alanine (protein, UniProt Q9Y570 2-386, looked up, variant L4A)
Protein phosphatase …: SAAEKSMHLGRLPSRPPLPGSGGSQSGAKMRMGPGRKRDFSPVPWSQYFESMEDVEVENETGKDTFRVYKSGSEGPVLLLLHGGGHSALSWAVFTAAIISRVQCRIVALDLRSHGETKVKNPEDLSAETMAKDVGNVVEAMYGDLPPPIMLIGHSMGGAIAVHTASSNLVPSLLGLCMIDVVEGTAMDALNSMQNFLRGRPKTFKSLENAIEWSVKSGQIRNLESARVSMVGQVKQCEGITSPEGSKSIVEGIIEEEEEDEEGSESISKRKKEDDMETKKDHPYTWRIELAKTEKYWDGWFRGLSNLFLSCPIPKLLLLAGVDRLDKDLTIGQMQGKFQMQVLPQCGHAVHEDAPDKVAEAVATFLIRHRFAEPIGGFQCVFPGC
As for B11, under setting [2], the Experimental % binding is 1%.

B12: PME1 K6: PME1, K6 to alanine (protein, UniProt Q9Y570 2-386, looked up, variant K6A)
Protein phosphatase …: B11 Protein phosphatase … with A3L, K5A
Molecule B12 registered an Experimental % binding under setting [2] of 2%.

B13: PME1 S7: PME1, S7 to alanine (protein, UniProt Q9Y570 2-386, looked up, variant S7A)
Protein phosphatase …: B11 Protein phosphatase … with A3L, S6A
Under setting [2], B13 showed an Experimental % binding of 220%.

B14: PME1 E5: PME1, E5 to alanine (protein, UniProt Q9Y570 2-386, looked up, variant E5A)
Protein phosphatase …: B11 Protein phosphatase … with A3L, E4A
Under setting [2], B14 gave an Experimental % binding of 108%.
